# Assay results reported in patent US20250034256A1 (EUCURE BEIJING BIOPHARMA, published 2025).
# Substitutions are numbered along the chain they refer to. Numbers in names are those of the source.
# T1: mouse PD-1 (mPD-1) on transfected CHO cells (mouse, UniProt Q02242 25-288)
# T1 sequence: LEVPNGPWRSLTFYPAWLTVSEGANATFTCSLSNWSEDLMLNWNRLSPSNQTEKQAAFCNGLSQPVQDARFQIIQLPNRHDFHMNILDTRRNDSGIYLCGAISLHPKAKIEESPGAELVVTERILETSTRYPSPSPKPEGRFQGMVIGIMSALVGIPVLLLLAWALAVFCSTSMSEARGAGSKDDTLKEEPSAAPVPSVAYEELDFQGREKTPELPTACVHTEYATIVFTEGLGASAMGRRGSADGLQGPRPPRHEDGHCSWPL
# T2: monkey (rhesus macaque) PD-1 (rmPD-1) on transfected CHO cells (rhesus macaque, UniProt Q15116 25-288 (human entry))
# T2 construct: also called monkey PD-1
# T2 chain: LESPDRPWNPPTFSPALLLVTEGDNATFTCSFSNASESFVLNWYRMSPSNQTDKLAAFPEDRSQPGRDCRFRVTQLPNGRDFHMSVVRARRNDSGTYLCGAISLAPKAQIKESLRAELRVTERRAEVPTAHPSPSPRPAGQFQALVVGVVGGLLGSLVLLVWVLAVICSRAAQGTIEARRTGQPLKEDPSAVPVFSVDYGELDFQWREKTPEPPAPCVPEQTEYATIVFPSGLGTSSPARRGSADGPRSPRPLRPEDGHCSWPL
# B1: mouse anti-hPD-1 antibody 25-1A7 (antibody, V domains shown)
# VH: EVKLVESGGGLVQPGGSLKLSCAASGFTFSSYSMSWVRQTPEKRLEWVAHISSGGSSTYYPDTVKGRFTISRDNARNTLYLQMSSLKSEDTAMYYCTRQFYYGSSFWYFDVWGAGTTVTVSS
# VL: DNVLTQSPVSLAVSLGQRATISCKASQSVDFDGDSYMNWYQQKPGQPPKLLIYAASNLESGIPARFSGSGSGTDFTLNIHPVEEEDAATYYCQQSNEDPPTFGGGTKLEIK
# notes: Mouse monoclonal antibody purified from ascites
# B2: mouse anti-hPD-1 antibody 18-3F1 (antibody, V domains shown)
# VH: QVQLQQSGAELAKPGASVKMSCKASGYTFTSYWMHWVKQRPGQGLEWIGYINPSTGYTEYNQKFKDKATLTADKSSSTAYMQLSSLTSEDSAVYYCARGVRYYFDYWGQGTTLTVSS
# VL: DIVMSQSPSSLAVSAGEKVTMSCKSSQSLLNSRTRKNYLAWYQQKPGQSPKLLIYWASTRESGVPDRFTGSGSGTDFTLTISSVQAEDLAVYYCKQSYNLLTFGAGTKLELK
# notes: as for B1
# B3: mouse anti-hPD-1 antibody 3-6G1 (antibody, V domains shown)
# VH: B2 VH with V18L, F29L, S54N, V100T, R101A
# VL: B2 VL with L101Q, A105G, L111I
# notes: Mouse monoclonal antibody purified from ascites; also called 03-6G1
# B4: 1A7-H2K2-IgG4-S228P (antibody, V domains shown)
# VH: B1 VH with K3Q, K19R, T40A, E42G, A75S, R76K, S84N, K87R, S88A
# VL: DNVLTQSPATLSVSPGERATLSCKASQSVDFDGDSYMNWYQQKPGQPPRLLIYAASNLESGIPARFSGSGPGTDFTLTISSLEPEDFATYYCQQSNEDPPTFGGGTKVEIK
# notes: Humanized; human IgG4 constant domains with S228P (EU numbering)
# B5: 1A7-H1K1-IgG4-S228P (antibody, V domains shown)
# VH: EVQLLESGGGLVQPGGSLRLSCAASGFTFSSYSMSWVRQAPGKRLEWVAHISSGGSSTYYPDTVKGRFTISRDNSKNTLYLQMNSLRAEDTAMYYCTRQFYYGSSFWYFDVWGQGTTVTVSS
# VL: B4 VL with V13L
# notes: as for B4
# B6: 1A7-H1K2-IgG4-S228P (antibody, V domains shown)
# VH: B5 VH
# VL: B4 VL
# notes: as for B4
# B7: 1A7-H1K3-IgG4-S228P (antibody, V domains shown)
# VH: B5 VH
# VL: B4 VL with P71S, L82V
# notes: as for B4
# B8: 1A7-H2K1-IgG4-S228P (antibody, V domains shown)
# VH: B5 VH with L5V, Q114A
# VL: B4 VL with V13L
# notes: as for B4
# B9: 1A7-H2K3-IgG4-S228P (antibody, V domains shown)
# VH: B5 VH with L5V, Q114A
# VL: B4 VL with P71S, L82V
# notes: as for B4
# B10: 1A7-H3K1-IgG4-S228P (antibody, V domains shown)
# VH: B5 VH with Q3K, L5V, Q114A
# VL: B4 VL with V13L
# notes: as for B4
# B11: 1A7-H3K2-IgG4-S228P (antibody, V domains shown)
# VH: B5 VH with Q3K, L5V, Q114A
# VL: B4 VL
# notes: as for B4
# B12: 1A7-H3K3-IgG4-S228P (antibody, V domains shown)
# VH: B5 VH with Q3K, L5V, Q114A
# VL: B4 VL with P71S, L82V
# notes: as for B4
# B13: 3F1-mHvKv-IgG4-S228P (antibody, V domains shown)
# VH: B2 VH
# VL: B2 VL
# notes: Chimeric antibody: mouse 3F1 variable domains, human IgG4 constant domains (CL, CH1, CH2, CH3) with S228P (EU numbering); also called 18-3F1-mHvKv-IgG4-S228P; 3F1-mHyKy-IgG4-S228P
# B14: 3F1-H3K2-IgG4-S228P (antibody, V domains shown)
# VH: B2 VH with L11V, K67R, K74T, S76T, Q82E, T87R, S91T, T112L
# VL: B2 VL with S5T, S9D, A15L, K18R, V19A, T69S, L89V, A105Q
# notes: as for B4
# B15: 3F1-H1K1-IgG4-S228P (antibody, V domains shown)
# VH: QVQLQQSGAEVKKPGASVKMSCKASGYTFTSYWMHWVRQAPGQGLEWIGYINPSTGYTEYNQKFKDRATLTADTSTSTAYMELSSLRSEDTAVYYCARGVRYYFDYWGQGTLVTVSS
# VL: B2 VL with S5T, S9D, A15L, K18R, V19A, M21I, T69S, L89V, A105Q
# notes: as for B4
# B16: 3F1-H1K2-IgG4-S228P (antibody, V domains shown)
# VH: B15 VH
# VL: B2 VL with S5T, S9D, A15L, K18R, V19A, T69S, L89V, A105Q
# notes: as for B4
# B17: 3F1-H1K3-IgG4-S228P (antibody, V domains shown)
# VH: B15 VH
# VL: B2 VL with S5T, K18R, T69S, L89V, A105Q
# notes: as for B4
# B18: 3F1-H2K1-IgG4-S228P (antibody, V domains shown)
# VH: B15 VH with R38K, A40R, T74K
# VL: B2 VL with S5T, S9D, A15L, K18R, V19A, M21I, T69S, L89V, A105Q
# notes: as for B4
# B19: 3F1-H2K2-IgG4-S228P (antibody, V domains shown)
# VH: B15 VH with R38K, A40R, T74K
# VL: B2 VL with S5T, S9D, A15L, K18R, V19A, T69S, L89V, A105Q
# notes: as for B4
# B20: 3F1-H2K3-IgG4-S228P (antibody, V domains shown)
# VH: B15 VH with R38K, A40R, T74K
# VL: B2 VL with S5T, K18R, T69S, L89V, A105Q
# notes: as for B4
# B21: 3F1-H3K1-IgG4-S228P (antibody, V domains shown)
# VH: B15 VH with K12A, R38K, A40R, V113L
# VL: B2 VL with S5T, S9D, A15L, K18R, V19A, M21I, T69S, L89V, A105Q
# notes: as for B4
# B22: 3F1-H3K3-IgG4-S228P (antibody, V domains shown)
# VH: B15 VH with K12A, R38K, A40R, V113L
# VL: B2 VL with S5T, K18R, T69S, L89V, A105Q
# notes: as for B4
# B23: 3F1-H4K1-IgG4-S228P (antibody, V domains shown)
# VH: B2 VH with L11V, K67R, S76T, Q82E, S91T, T112L
# VL: B2 VL with S5T, S9D, A15L, K18R, V19A, M21I, T69S, L89V, A105Q
# notes: as for B4
# B24: 3F1-H4K2-IgG4-S228P (antibody, V domains shown)
# VH: B2 VH with L11V, K67R, S76T, Q82E, S91T, T112L
# VL: B2 VL with S5T, S9D, A15L, K18R, V19A, T69S, L89V, A105Q
# notes: as for B4
# B25: 3F1-H4K3-IgG4-S228P (antibody, V domains shown)
# VH: B2 VH with L11V, K67R, S76T, Q82E, S91T, T112L
# VL: B2 VL with S5T, K18R, T69S, L89V, A105Q
# notes: as for B4
# Target: T1, mouse PD-1 (mPD-1) on transfected CHO …
# Assay: flow cytometry, antibody at 1 µg/ml on CHO cells transfected with mPD-1 (CHO-mPD-1); anti-mIgG Fc-FITC against SSC-H
# Experimental: (§1) 25 μl CHO cells were added to each well.
# (§2) After being washed with PBS (1200 rmp, 5 min) twice, 50 μl of FITC labeled anti-mouse IgG Fc antibody (anti-mIgG Fc-FITC) was added into each well 1:500 dilution, followed by incubated at 4° C. for 30 minutes, and then PBS wash (1200 rmp, 5 min). The signals for FITC were determined by flow cytometry.
row,Binder,% cells positive for Anti-mouse-IgGFc-FITC [%]
1,B1,0.381
2,B2,1.51
3,B3,0.502

# Target: T3, Histidine-tagged human PD-1 protein (hPD-1-His) (human, UniProt Q15116 25-170, limits assumed)
# T3 construct: Soluble analyte in SPR; not shown: histidine tag
# T3 sequence (Q15116 25-170 limits assumed): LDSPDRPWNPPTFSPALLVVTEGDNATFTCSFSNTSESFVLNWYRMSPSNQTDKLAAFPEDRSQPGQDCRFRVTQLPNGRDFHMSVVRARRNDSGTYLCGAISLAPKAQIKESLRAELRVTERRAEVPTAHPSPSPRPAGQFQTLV
# Assay: SPR (Biacore T200), antibody captured on Protein A chip, hPD-1-His analyte, 1:1 fit
# Experimental: The binding affinity of the anti-hPD-1 antibodies were measured using surface plasmon resonance (SPR) using Biacore™ (Biacore™, INC, Piscataway N.J.) T200 biosensor equipped with pre-immobilized Protein A sensor chips.
# Histidine-tagged human PD-1 proteins (hPD-1-His) at the concentration of 200, 100, 50, 25, 12.5, 6.25, 3.125, 1.5625 nM were then injected at 30 μL/min for 100 seconds. Dissociation was monitored for 400 seconds. The chip was regenerated after the last injection of each titration with Glycine (pH 2.0, 30 μL/min for 12 seconds).
# As a person of ordinary skill in the art would understand, the same method with appropriate adjustments for parameters (e.g., antibody concentration) was performed for each tested antibody.
Binder,Kd [µM],koff [s⁻¹],kon [M⁻¹ s⁻¹]
B4,0.0578,0.00282,48800
B5,0.0479,0.00272,56800
B6,0.0321,0.00265,82600
B7,0.0101,0.00119,118000
B8,0.0573,0.0028,48900
B9,0.0119,0.00136,115000
B10,0.0399,0.00264,66200
B11,0.0582,0.0028,48100
B12,0.0129,0.00132,102000
B13,0.346,0.00128,3700
B14,0.296,0.0015,5060
B15,0.376,0.00181,4810
B16,0.294,0.00155,5270
B17,0.275,0.00132,4790
B18,0.422,0.00192,4550
B19,0.354,0.0017,4810
B20,0.329,0.00145,4410
B21,0.395,0.00179,4530
B22,0.318,0.00139,4380
B23,0.46,0.00204,4420
B24,0.369,0.00177,4800
B25,0.397,0.00161,4060

# Target: T1, mouse PD-1 (mPD-1) on transfected CHO …
# Assay: flow cytometry on CHO cells transfected with mouse PD-1
# Experimental: as §1, §2
row,Binder,binding result
1,B1,no binding (tested: 1 µg/ml)
2,B2,no binding (tested: 1 µg/ml)
3,B3,no binding (tested: 1 µg/ml)

# Target: T2, monkey (rhesus macaque) PD-1 (rmPD-1) …
# Assay: flow cytometry, antibody at 1 µg/ml on CHO cells transfected with rmPD-1 (CHO-rmPD-1); anti-mIgG Fc-FITC against SSC-H
# Experimental: as §1, §2
row,Binder,% cells positive for Anti-mouse-IgGFc-FITC [%]
1,B1,85
2,B2,63.6
3,B3,64.3
